We go through two molecules from article PMC10853514, “Autoinhibition and activation of myosin VI revealed by its cryo-EM structure” (Nature Communications, 2024).

Test [1] deals with T1, myosin VI motor domain (MD), aa 1-789 (human, UniProt Q9UM54-1 1-789).
T1 construct: myosin VI, human, motor domain aa 1-789; The methods say that myosin VI or its mutants were co-transfected with CaM; also called the MD; source: HEK293-F (pCAG vector), purified
As to the kind of experiment: SEC; analytical SEC at 16 °C in PB (20 mM Na2HPO4/NaH2PO4 pH 7.4, 60 mM NaCl, 1 mM EGTA, 2 mM DTT, 2 mM MgCl2); 3.0 μM of the MD and CBD1 proteins. The following applies: both partners purified. In general terms: Size exclusion chromatography separates by hydrodynamic size, large species first.

Test [2] addresses T2, calmodulin (CaM), light chain of myosin VI (UniProt P0DP23 1-149).
T2 construct: calmodulin, the light chain of myosin VI; Two copies stand in the structure: CaM1 on Insert2 (with four Ca2+ ions) and CaM2 on the IQ motif; also called CaM1; CaM2; source: HEK293-F, co-transfected with myosin VI, co-purified
As to the kind of experiment: cryo-EM structure; single-particle cryo-EM of myosin VI/CaM in PB, TB + AMPPNP and PB + ATP, the three datasets combined; autoinhibited state, 3.54 Å (4.14 Å map with the SAH-E). The note with it: both partners purified.

B1: myosin VI cargo-binding domain 1 (CBD1), aa 1072-1158 (domain or fragment, human, UniProt Q9UM54-1 1072-1158, looked up)
chain: TKKYDLSKWKYAELRDTINTSCDIELLAACREEFHRRLKVYHAWKSKNKKRNTETEQRAPKSVTDYDFAPFLNNSPQQNPAAQIPAR
notes: myosin VI, human, CBD1 aa 1072-1158, numbers of the form with LI and SI; also called the CBD1; source: E. coli BL21(DE3), purified (Ni-NTA, size exclusion)
As to B1, the binding result in test [1] was “binds”.

B2: human myosin VI heavy chain, full length, containing both the large-insertion (LI) and small-insertion (SI) regions (natural protein)
chain: MEDGKPVWAPHPTDGFQMGNIVDIGPDSLTIEPLNQKGKTFLALINQVFPAEEDSKKDVEDNCSLMYLNEATLLHNIKVRYSKDRIYTYVANILIAVNPYFDIPKIYSSEAIKSYQGKSLGTRPPHVFAIADKAFRDMKVLKMSQSIIVSGESGAGKTENTKFVLRYLTESYGTGQDIDDRIVEANPLLEAFGNAKTVRNNNSSRFGKFVEIHFNEKSSVVGGFVSHYLLEKSRICVQGKEERNYHIFYRLCAGASEDIREKLHLSSPDNFRYLNRGCTRYFANKETDKQILQNRKSPEYLKAGSMKDPLLDDHGDFIRMCTAMKKIGLDDEEKLDLFRVVAGVLHLGNIDFEEAGSTSGGCNLKNKSAQSLEYCAELLGLDQDDLRVSLTTRVMLTTAGGTKGTVIKVPLKVEQANNARDALAKTVYSHLFDHVVNRVNQCFPFETSSYFIGVLDIAGFEYFEHNSFEQFCINYCNEKLQQFFNERILKEEQELYQKEGLGVNEVHYVDNQDCIDLIEAKLVGILDILDEENRLPQPSDQHFTSAVHQKHKDHFRLTIPRKSKLAVHRNIRDDEGFIIRHFAGAVCYETTQFVEKNNDALHMSLESLICESRDKFIRELFESSTNNNKDTKQKAGKLSFISVGNKFKTQLNLLLDKLRSTGASFIRCIKPNLKMTSHHFEGAQILSQLQCSGMVSVLDLMQGGYPSRASFHELYNMYKKYMPDKLARLDPRLFCKALFKALGLNENDYKFGLTKVFFRPGKFAEFDQIMKSDPDHLAELVKRVNHWLTCSRWKKVQWCSLSVIKLKNKIKYRAEACIKMQKTIRMWLCKRRHKPRIDGLVKVGTLKKRLDKFNEVVSVLKDGKPEMNKQIKNLEISIDTLMAKIKSTMMTQEQIQKEYDALVKSSEELLSALQKKKQQEEEAERLRRIQEEMEKERKRREEDEKRRRKEEEERRMKLEMEAKRKQEEEERKKREDDEKRIQAEVEAQLARQKEEESQQQAVLEQERRDRELALRIAQSEAELISDEAQADLALRRNDGTRPKMTPEQMAKEMSEFLSRGPAVLATKAAAGTKKYDLSKWKYAELRDTINTSCDIELLAACREEFHRRLKVYHAWKSKNKKRNTETEQRAPKSVTDYDFAPFLNNSPQQNPAAQIPARQREIEMNRQQRFFRIPFIRPADQYKDPQSKKKGWWYAHFDGPWIARQMELHPDKPPILLVAGKDDMEMCELNLEETGLTRKRGAEILPRQFEEIWERCGGIQYLQNAIESRQARPTYATAMLQSLLK
notes: myosin VI, human, full length with both the alternatively spliced LI and SI regions; codon-optimised synthetic gene; also called the heavy chain; source: HEK293-F, co-transfected with CaM, purified (Flag resin, size exclusion)
On to B2, for which the binding result in test [2] is on record as “binds”.
